According to paper PMC9829174:

Test system: His6MBP-MP (TMV movement protein, 30 kDa) (Tobacco mosaic virus)
Experiment: EMSA
Settings: 20 mM Tris-HCl pH 7.5, 35 mM KCl, 3.5 mM MgCl2, 5 U RNaseOUT, 10 ul, 30 min at 4 C; 6% native PAGE at 4 C, RNA blot detection; ssDNA/dsDNA competitors were …

With PSTVd WT full-length transcript, folded the K half was 36 nM.
